Data from patent publication US20240165282A1, “CONFORMATIONAL CONSTRAINED SOMATOSTATIN RECEPTOR 3 PEPTIDE LIGANDS AND THEIR CONJUGATES AND USES THEREOF” (STARGET PHARMA LTD., priority 2021, published 2024).
*1 amine or outer side, *2 acyl side, *3 side chain or, on linkers, in order; H or OH if unused. Bridges are numbered along the chain shown (N, C = ends). [ ]: non-standard residue; d: D form. The star is where a group is joined. DOTA = O=C(O)CN1CCN(CC(=O)O)CCN(CC(=O)*)CCN(CC(=O)O)CC1; N(2-mercaptoethyl)Gly = O=C(CN(CCS[*:3])[*:1])[*:2]; 4Amb = NCc1ccc(C(=O)O)cc1; Aoc = NCCCCCCCC(=O)O; CPT = camptothecin; GABA = NCCCC(=O)O

Assays:
Experiment in all cases: Radioligand binding, displacement of 125I-Tyr11-SRIF-14
hSSTR-4 = molecular target: T1, hSSTR-4 (Homo sapiens, UniProt P31391); settings: hSSTR-4
T1 construct: host or cells: Chem-1 (Rat ChemiSCREEN) cells, membrane preparation
Source text: (§1) The binding to human cloned receptors SSTR-1, or SSTR-2 or SSTR-3 evaluated in stable and selective transfected CHO (Chinese Hamster Ovary) cells and binding to STSR-4 and SSTR-5 in stable and selective transfected Chem-1 (Rat ChemiSCREEN) cells. […] The binding reactions were filtered, the filters were washed, and the bound radioactivity was counted using a gamma counter.
(§2) The following table depicts the conditions of binding assay to each of the somatostatin receptors used for the evaluations of binding affinities of the tested peptides. All assays were performed by quantitation method of radioligand binding under 25° C. The vehicle was 1% DMSO, the incubation buffer was 25 mM HEPES, pH 7.4, 5 mM MgCl2, 1 mM CaCl2, 0.1% BSA. […] The significance criteria were >50% of max inhibition. […] This specific binding data used for calculation of Bmax values which is the concentration of each of the expressed cloned receptor in its transfected cell system.
(§3) The Results of IC50 values were determined by a non-linear, least squares regression analysis using MathIQ™ (ID Business Solutions Ltd., UK). […] The Hill coefficient (nH), defining the slope of the competitive binding curve, was calculated using MathIQ™.

SSTR5 = SSTR5 (Homo sapiens, UniProt P35346); set-up: host or cells: Chem-1 (Rat ChemiSCREEN) cells, membrane preparation; settings: hSSTR-5
Source text: as §1, §2, §3

SSTR1 = SSTR1 (Homo sapiens, UniProt P30872); set-up: host or cells: CHO (Chinese Hamster Ovary) cells, membrane preparation; settings: hSSTR-1
Source text: as §1, §2, §3

SSTR2 = SSTR2 (Homo sapiens, UniProt P30874); set-up: host or cells: CHO (Chinese Hamster Ovary) cells, membrane preparation; settings: hSSTR-2
Source text: as §1, §2, §3

SSTR3 = SSTR3 (Homo sapiens, UniProt P32745); set-up: host or cells: CHO (Chinese Hamster Ovary) cells, membrane preparation; settings: for affinity and selectivity to SSTR3 (in words): binding data; for % displacement of [^125I] Tyr^11-SRIF-14: hSSTR-3
Source text: as §1, §2, §3

SSTR3, sequence (P32745 whole entry): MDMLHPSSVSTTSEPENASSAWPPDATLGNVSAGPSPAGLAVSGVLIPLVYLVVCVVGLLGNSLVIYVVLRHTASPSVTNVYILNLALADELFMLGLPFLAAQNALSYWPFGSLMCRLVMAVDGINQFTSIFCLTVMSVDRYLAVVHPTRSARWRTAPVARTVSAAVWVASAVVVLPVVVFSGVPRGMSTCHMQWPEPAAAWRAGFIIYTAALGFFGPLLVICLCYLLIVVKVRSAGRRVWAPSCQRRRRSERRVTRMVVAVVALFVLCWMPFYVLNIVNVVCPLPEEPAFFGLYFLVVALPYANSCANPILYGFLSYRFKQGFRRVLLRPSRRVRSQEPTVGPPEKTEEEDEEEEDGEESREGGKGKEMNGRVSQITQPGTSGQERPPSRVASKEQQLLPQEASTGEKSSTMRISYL
SSTR2, sequence (P30874 whole entry): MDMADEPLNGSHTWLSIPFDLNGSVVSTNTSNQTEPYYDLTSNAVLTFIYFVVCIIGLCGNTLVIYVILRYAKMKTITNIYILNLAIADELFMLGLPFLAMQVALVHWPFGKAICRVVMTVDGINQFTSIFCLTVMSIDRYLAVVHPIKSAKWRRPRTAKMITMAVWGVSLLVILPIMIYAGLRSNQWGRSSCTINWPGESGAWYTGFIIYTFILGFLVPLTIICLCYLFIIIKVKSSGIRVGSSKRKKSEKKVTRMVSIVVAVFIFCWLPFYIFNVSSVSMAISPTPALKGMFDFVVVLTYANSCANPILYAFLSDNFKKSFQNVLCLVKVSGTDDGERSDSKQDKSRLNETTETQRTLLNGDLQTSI
SSTR1, sequence (P30872 whole entry): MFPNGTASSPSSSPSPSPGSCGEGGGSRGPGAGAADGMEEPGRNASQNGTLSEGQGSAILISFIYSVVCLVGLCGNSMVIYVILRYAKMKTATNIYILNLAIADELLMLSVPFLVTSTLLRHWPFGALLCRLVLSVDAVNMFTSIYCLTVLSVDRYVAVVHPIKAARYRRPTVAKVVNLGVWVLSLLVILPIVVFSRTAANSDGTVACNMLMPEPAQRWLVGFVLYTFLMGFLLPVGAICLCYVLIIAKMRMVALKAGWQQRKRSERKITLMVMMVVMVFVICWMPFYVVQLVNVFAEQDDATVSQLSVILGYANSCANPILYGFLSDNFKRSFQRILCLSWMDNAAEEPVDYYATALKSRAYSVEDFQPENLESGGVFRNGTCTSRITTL
T1 sequence (P31391 whole entry): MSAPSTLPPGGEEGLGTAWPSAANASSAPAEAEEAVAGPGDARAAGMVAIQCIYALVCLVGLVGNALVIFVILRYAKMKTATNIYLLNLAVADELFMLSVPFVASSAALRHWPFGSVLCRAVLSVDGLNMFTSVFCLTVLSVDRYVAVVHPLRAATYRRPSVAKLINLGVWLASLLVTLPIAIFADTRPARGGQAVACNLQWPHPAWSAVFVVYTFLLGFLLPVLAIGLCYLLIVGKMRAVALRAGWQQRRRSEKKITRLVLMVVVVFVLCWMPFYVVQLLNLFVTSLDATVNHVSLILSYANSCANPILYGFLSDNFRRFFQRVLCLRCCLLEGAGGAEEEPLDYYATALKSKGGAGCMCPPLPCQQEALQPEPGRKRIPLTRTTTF
SSTR5, sequence (P35346 whole entry): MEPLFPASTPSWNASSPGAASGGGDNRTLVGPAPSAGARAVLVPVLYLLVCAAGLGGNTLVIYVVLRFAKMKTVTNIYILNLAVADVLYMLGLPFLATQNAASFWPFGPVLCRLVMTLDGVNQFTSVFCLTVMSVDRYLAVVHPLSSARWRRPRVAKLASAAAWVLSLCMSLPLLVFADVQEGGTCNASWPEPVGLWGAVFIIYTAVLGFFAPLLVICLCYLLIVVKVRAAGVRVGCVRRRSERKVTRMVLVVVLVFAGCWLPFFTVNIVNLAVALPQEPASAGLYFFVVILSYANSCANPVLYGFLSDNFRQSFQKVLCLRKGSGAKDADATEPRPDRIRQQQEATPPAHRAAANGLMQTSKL

Row | Substance | % displacement of [^125I] Tyr^11-SRIF-14 (hSSTR-4; at 1 nM (in brackets)) | % displacement of [^125I] Tyr^11-SRIF-14 (hSSTR-4; at 10 nM) | % displacement of [^125I] Tyr^11-SRIF-14 (SSTR5; at 1 nM (in brackets)) | % displacement of [^125I] Tyr^11-SRIF-14 (SSTR5; at 10 nM) | % displacement of [^125I] Tyr^11-SRIF-14 (SSTR1; at 1 nM (in brackets)) [%] | % displacement of [^125I] Tyr^11-SRIF-14 (SSTR1; at 10 nM) [%] | % displacement of [^125I] Tyr^11-SRIF-14 (SSTR2; at 1 nM (in brackets)) | % displacement of [^125I] Tyr^11-SRIF-14 (SSTR2; at 10 nM) | affinity and selectivity to SSTR3 (in words) (SSTR3) | % displacement of [^125I] Tyr^11-SRIF-14 (SSTR3; at 1 nM (in brackets)) [%] | % displacement of [^125I] Tyr^11-SRIF-14 (SSTR3; at 10 nM) [%] | affinity to SSTR3 (SSTR3) [nM]
1 | gallium labelled DOTA-GABA-D-Phe^1-Arg^2-Cys^3-Phe^4-D-Trp^5-Lys^6-Thr^7-Phe^8-NTEG^9-NH2 (cyclo 3-9) ({DOTA-GABA}-[dF]RCF[dW]KTF[N(2-mercaptoethyl)Gly]-NH2; disulfide 3-9; also: gallium complex of DOTA) [SEQ ID NO: 8] | 5% | 4% | 0% | 15% | 0 | 10 | 0% | 10% | maintains the same affinity and selectivity to SSTR3 as SEQ ID NO. 1, and SEQ ID NO. 3-7 | 61 | 88 | 
2 | CPT-8-aminooctanoic acid-D-Phe^1-Arg^2-Cys^3-Phe^4-D-Trp^5-Lys^6-Thr^7-Phe^8-NTEG^9-NH2 (cyclo 3-9) ({CPT-Aoc}-[dF]RCF[dW]KTF[N(2-mercaptoethyl)Gly]-NH2; disulfide 3-9) [SEQ ID NO: 27] | 0(0) % | 0(0) % | 0(0) % | 0(0) % | 0 | 3 | 0(0) % | 0(0) % | the same selectivity to SSTR3 as SEQ ID NO: 1 | 12 | 51 | ≤ 10
3 | Niraparib-CO(CH2)3CO-D-Phe^1-Arg^2-Cys^3-Phe^4-D-Trp^5-Lys^6-Thr^7-Phe^8-NTEG^9-NH2 cyclo 3-9 [SEQ ID NO: 28] | 0(0) % | 0(0) % | 0(0) % | 0(0) % | 12 | 23 | 0(0) % | 0(0) % | the same selectivity to SSTR3 as SEQ ID NO: 1 | 28 | 79 | ≤ 10
4 | DOTA-4-Amb-D-Phe^1-Arg^2-Cys^3-Phe^4-D-Trp^5-Lys^6-Thr^7-Phe^8-NTEG^9-NH2 (cyclo 3-9) ({DOTA-4Amb}-[dF]RCF[dW]KTF[N(2-mercaptoethyl)Gly]-NH2; disulfide 3-9) [SEQ ID NO: 18] | 0% | 8% | 0(0) % | 0(0) % | 0 | 4 | 0(0) % | 0(0) % |  | 49 | 85 | 
5 | DOTA-Arg^1-Gly^2-Asp^3-D-Phe^4-Arg^5-Cys^6-Phe^7-D-Trp^8-Lys^9-Thr^10-Phe^11-NTEG^12- NH2 (cyclo 6-12) ({DOTA}-RGD[dF]RCF[dW]KTF[N(2-mercaptoethyl)Gly]-NH2; disulfide 6-12; SMILES C[C@@H](O)[C@@H]1NC(=O)[C@H](CCCCN)NC(=O)[C@@H](Cc2c[nH]c3ccccc23)NC(=O)[C@H](Cc2ccccc2)NC(=O)[C@@H](NC(=O)[C@H](CCCNC(=N)N)NC(=O)[C@@H](Cc2ccccc2)NC(=O)[C@H](CC(=O)O)NC(=O)CNC(=O)[C@H](CCCNC(=N)N)NC(=O)CN2CCN(CC(=O)O)CCN(CC(=O)O)CCN(CC(=O)O)CC2)CSSCCN(CC(N)=O)C(=O)[C@H](Cc2ccccc2)NC1=O) [SEQ ID NO: 14] |  |  |  |  |  |  |  |  | did not interfere with the affinity and selectivity of SEQ ID NO: 3 to SSTR3 | 46 | 89 | 
6 | H-Phe^1-Arg^2-Cys^3-Phe^4-D-Trp^5-Lys^6-Thr^7-Tyr^8-NTEG^9-NH2 (cyclo 3-9) (H-XRCF[dW]KTY[N(2-mercaptoethyl)Gly]-NH2; disulfide 3-9; not fully specified (residue 1); printed as H-Phe1-Arg2-Cys3-Phe4-D-Trp5-Lys6-Thr7-Tyr8-NTEG9-NH2 (cyclo 3-9)) [SEQ ID NO: 26] | 0(0) % | 0(0) % | 0% | 1% | 0 | 24 | 0(0) % | 0(0) % |  | 53 | 86 | 
7 | DOTA-Ala^1-D-Phe^2-Arg^3-Cys^4-Phe^5-D-Trp^6-Lys^7-Thr^8-Phe^9-NTEG^10-NH2 (cyclo 4-10) ({DOTA}-A[dF]RCF[dW]KTF[N(2-mercaptoethyl)Gly]-NH2; disulfide 4-10; SMILES C[C@H](NC(=O)CN1CCN(CC(=O)O)CCN(CC(=O)O)CCN(CC(=O)O)CC1)C(=O)N[C@H](Cc1ccccc1)C(=O)N[C@@H](CCCNC(=N)N)C(=O)N[C@H]1CSSCCN(CC(N)=O)C(=O)[C@H](Cc2ccccc2)NC(=O)[C@H]([C@@H](C)O)NC(=O)[C@H](CCCCN)NC(=O)[C@@H](Cc2c[nH]c3ccccc23)NC(=O)[C@H](Cc2ccccc2)NC1=O) [SEQ ID NO: 12] | 0(0) % | 0(0) % | 0% | 13% | 0 | 10 | 0(0) % | 0(0) % |  | 64 | 93 | 
8 | DOTA-GABA-D-Phe^1-Arg^2-Cys^3-Phe^4-D-Trp^5-Lys^6-Thr^7-Phe^8-NTEG^9-NH2 (cyclo 3-9) ({DOTA-GABA}-[dF]RCF[dW]KTF[N(2-mercaptoethyl)Gly]-NH2; disulfide 3-9) [SEQ ID NO: 7] |  |  |  |  |  |  |  |  | increased the affinity and selectivity |  |  | 
9 | DOTA-D-Phe^1-Lys^2-Cys^3-Tyr^4-D-Trp^5-Lys^6-Thr^7-Phe^8-NTEG^9 -NH2 (cyclo 3-9) ({DOTA}-[dF]KCY[dW]KTF[N(2-mercaptoethyl)Gly]-NH2; disulfide 3-9; SMILES C[C@@H](O)[C@@H]1NC(=O)[C@H](CCCCN)NC(=O)[C@@H](Cc2c[nH]c3ccccc23)NC(=O)[C@H](Cc2ccc(O)cc2)NC(=O)[C@@H](NC(=O)[C@H](CCCCN)NC(=O)[C@@H](Cc2ccccc2)NC(=O)CN2CCN(CC(=O)O)CCN(CC(=O)O)CCN(CC(=O)O)CC2)CSSCCN(CC(N)=O)C(=O)[C@H](Cc2ccccc2)NC1=O) [SEQ ID NO: 24] |  |  |  |  |  |  |  |  |  | 66 | 88 | 
